Source: US20130209454A1

Columns and labels:
Experiment in all cases: cell-based or functional assay
[1] = molecular target: HIV-1 Env of strain 0330.v4.c3 (HIV-1)
[2] = molecular target: HIV-1 Env of strain 1054_07_TC4_1499 (HIV-1)
[3] = molecular target: HIV-1 Env of strain 231965.c01 (HIV-1)
[4] = molecular target: HIV-1 Env of strain 231966.c02 (HIV-1)
[5] = molecular target: HIV-1 Env of strain 3016.v5.c45 (HIV-1)
[6] = molecular target: HIV-1 Env of strain 3301.v1.c24 (HIV-1)
[7] = molecular target: HIV-1 Env of strain 6540.v4.cl (HIV-1)
[8] = molecular target: HIV-1 Env of strain 6545.v4.cl (HIV-1)
[9] = molecular target: HIV-1 Env of strain 703357.C02 (HIV-1)
[10] = molecular target: HIV-1 Env of strain 89-F1_2_25 (HIV-1)
[11] = molecular target: HIV-1 Env of strain AC10.0.29 (HIV-1)
[12] = molecular target: HIV-1 Env of strain C2101.c01 (HIV-1)
[13] = molecular target: HIV-1 Env of strain CAP210.2.00.E8 (HIV-1)
[14] = molecular target: HIV-1 Env of strain CAP45.2.00.G3 (HIV-1)
[15] = molecular target: HIV-1 Env of strain CNE20 (HIV-1)
[16] = molecular target: HIV-1 Env of strain CNE30 (HIV-1)
[17] = molecular target: HIV-1 Env of strain CNE53 (HIV-1)
[18] = molecular target: HIV-1 Env of strain Ce2060_G9 (HIV-1)
[19] = molecular target: HIV-1 Env of strain Ce703010054_2A2 (HIV-1)
[20] = molecular target: HIV-1 Env of strain Du156.12 (HIV-1)
[21] = molecular target: HIV-1 Env of strain Du422.1 (HIV-1)
[22] = molecular target: HIV-1 Env of strain P0402_c2_11 (HIV-1)
[23] = molecular target: HIV-1 Env of strain SC422661.8 (HIV-1)
[24] = molecular target: HIV-1 Env of strain THRO4156.18 (HIV-1)
[25] = molecular target: HIV-1 Env of strain ZM135M.PL10a (HIV-1)
[26] = molecular target: HIV-1 strain 1054_07_TC4_1499 envelope (gp120) (HIV-1)
[27] = molecular target: HIV-1 strain 3103.v3.c10 envelope (gp120) (HIV-1)
[28] = molecular target: HIV-1 strain 3301.v1.c24 envelope (gp120) (HIV-1)
[29] = molecular target: HIV-1 strain 3415.v1.c1 envelope (gp120) (HIV-1)
[30] = molecular target: HIV-1 strain 3817.v2.c59 envelope (gp120) (HIV-1)
[31] = molecular target: HIV-1 strain C2101.c01 envelope (gp120) (HIV-1)
[32] = molecular target: HIV-1 strain C3347.c11 envelope (gp120) (HIV-1)
[33] = molecular target: HIV-1 strain CNE21 envelope (gp120) (HIV-1)
[34] = molecular target: HIV-1 strain CNE30 envelope (gp120) (HIV-1)
[35] = molecular target: HIV-1 strain CNE58 envelope (gp120) (HIV-1)
[36] = molecular target: HIV-1 strain Ce0682_E4 envelope (gp120) (HIV-1)
[37] = molecular target: HIV-1 strain Ce1176_A3 envelope (gp120) (HIV-1)
[38] = molecular target: HIV-1 strain Ce2060_G9 envelope (gp120) (HIV-1)
[39] = molecular target: HIV-1 strain Du156.12 envelope (gp120) (HIV-1)
[40] = molecular target: HIV-1 strain Du422.1 envelope (gp120) (HIV-1)
[41] = molecular target: HIV-1 strain P0402_c2_11 envelope (gp120) (HIV-1)
[42] = molecular target: HIV-1 strain Q23.17 envelope (gp120) (HIV-1)
[43] = molecular target: HIV-1 strain Q259.d2.17 envelope (gp120) (HIV-1)
[44] = molecular target: HIV-1 strain Q769.d22 envelope (gp120) (HIV-1)
[45] = molecular target: HIV-1 strain T257-31 envelope (gp120) (HIV-1)
[46] = molecular target: HIV-1 strain TRJO4551.58 envelope (gp120) (HIV-1)
[47] = molecular target: HIV-1 strain WITO4160.33 envelope (gp120) (HIV-1)
[48] = molecular target: HIV-1 strain ZM109F.PB4 envelope (gp120) (HIV-1)
[49] = molecular target: HIV-1 strain ZM197M.PB7 envelope (gp120) (HIV-1)
[50] = molecular target: HIV-1 strain ZM214M.PL15 envelope (gp120) (HIV-1)

B1: NIH45-46^G54W IgG (antibody, name in Kabat numbering, V domains shown)
VH: QVRLSQSGGQMKKPGESMRLSCRASGYEFLNCPINWIRLAPGRRPEWMGWLKPRWGAVNYARKFQGRVTMTRDVYSDTAFLELRSLTSDDTAVYFCTRGKYCTARDYYNWDFEHWGRGAPVTVSS
VL: EIVLTQSPATLSLSPGETAIISCRTSQSGSLAWYQQRPGQAPRLVIYSGSTRAAGIPDRFSGSRWGADYNLSISNLESGDFGVYYCQQYEFFGQGTKVQVDI
For B1, which neutralization IC50 [1] is on record?
The neutralization IC50 was 0.03 µg/mL.

And the neutralization IC50 [2]?
The neutralization IC50 was 0.04 µg/mL.

What about the neutralization IC50 [3] of the same binder?
The neutralization IC50 was less than 0.001 µg/mL.

What about the neutralization IC50 [4] of the same binder?
Its neutralization IC50 is 0.02 µg/mL.

What about the neutralization IC50 [5] of the same binder?
Its neutralization IC50 is 1.47 µg/mL.

And the neutralization IC50 [6]?
Its neutralization IC50 is less than 0.001 µg/mL.

And the neutralization IC50 [7]?
Its neutralization IC50 is greater than 50 µg/mL.

What about the neutralization IC50 [8] of the same binder?
Its neutralization IC50 is 18.9 µg/mL.

And the neutralization IC50 [9]?
The neutralization IC50 was 3.43 µg/mL.

What about the neutralization IC50 [10] of the same binder?
The neutralization IC50 was greater than 50 µg/mL.

And the neutralization IC50 [11]?
Its neutralization IC50 is 0.13 µg/mL.

And the neutralization IC50 [12]?
The neutralization IC50 was 0.04 µg/mL.

What about the neutralization IC50 [13] of the same binder?
Its neutralization IC50 is greater than 50 µg/mL.

And the neutralization IC50 [14]?
Its neutralization IC50 is 32.2 µg/mL.

And the neutralization IC50 [15]?
Its neutralization IC50 is 0.04 µg/mL.

What about the neutralization IC50 [16] of the same binder?
The neutralization IC50 was 0.052 µg/mL.

And the neutralization IC50 [17]?
Its neutralization IC50 is less than 0.001 µg/mL.

And the neutralization IC50 [18]?
Its neutralization IC50 is 0.005 µg/mL.

What about the neutralization IC50 [19] of the same binder?
The neutralization IC50 was 0.027 µg/mL.

And the neutralization IC50 [20]?
Its neutralization IC50 is less than 0.001 µg/mL.

And the neutralization IC50 [21]?
Its neutralization IC50 is greater than 50 µg/mL.

What about the neutralization IC50 [22] of the same binder?
Its neutralization IC50 is 0.003 µg/mL.

And the neutralization IC50 [23]?
The neutralization IC50 was 0.02 µg/mL.

What about the neutralization IC50 [24] of the same binder?
Its neutralization IC50 is 0.54 µg/mL.

What about the neutralization IC50 [25] of the same binder?
Its neutralization IC50 is 0.04 µg/mL.

What about the neutralization IC80 [26] of the same binder?
Its neutralization IC80 is 0.165 µg/mL.

What about the neutralization IC80 [27] of the same binder?
Its neutralization IC80 is 0.56 µg/mL.

And the neutralization IC80 [28]?
The neutralization IC80 was 0.004 µg/mL.

And the neutralization IC80 [29]?
The neutralization IC80 was 0.023 µg/mL.

And the neutralization IC80 [30]?
The neutralization IC80 was greater than 50 µg/mL.

And the neutralization IC80 [31]?
The neutralization IC80 was 0.17 µg/mL.

And the neutralization IC80 [32]?
Its neutralization IC80 is 0.028 µg/mL.

And the neutralization IC80 [33]?
Its neutralization IC80 is 0.16 µg/mL.

And the neutralization IC80 [34]?
Its neutralization IC80 is 0.196 µg/mL.

What about the neutralization IC80 [35] of the same binder?
The neutralization IC80 was 0.05 µg/mL.

And the neutralization IC80 [36]?
Its neutralization IC80 is 0.039 µg/mL.

What about the neutralization IC80 [37] of the same binder?
The neutralization IC80 was 0.45 µg/mL.

What about the neutralization IC80 [38] of the same binder?
The neutralization IC80 was 0.042 µg/mL.

What about the neutralization IC80 [39] of the same binder?
The neutralization IC80 was 0.005 µg/mL.

And the neutralization IC80 [40]?
The neutralization IC80 was greater than 50 µg/mL.

And the neutralization IC80 [41]?
Its neutralization IC80 is 0.023 µg/mL.

What about the neutralization IC80 [42] of the same binder?
Its neutralization IC80 is 0.03 µg/mL.

What about the neutralization IC80 [43] of the same binder?
Its neutralization IC80 is 0.014 µg/mL.

And the neutralization IC80 [44]?
The neutralization IC80 was 0.009 µg/mL.

And the neutralization IC80 [45]?
The neutralization IC80 was 0.45 µg/mL.

And the neutralization IC80 [46]?
The neutralization IC80 was 0.05 µg/mL.

And the neutralization IC80 [47]?
Its neutralization IC80 is 0.04 µg/mL.

And the neutralization IC80 [48]?
The neutralization IC80 was 0.07 µg/mL.

And the neutralization IC80 [49]?
Its neutralization IC80 is 0.18 µg/mL.

What about the neutralization IC80 [50] of the same binder?
Its neutralization IC80 is 0.15 µg/mL.
